{"source": "paper PMC8751750", "about": "“Effect of using different co-ligands during ^99mTc-labeling of J18 peptide on SK-MES-1 cell binding and tumor targeting” (Iranian Journal of Basic Medical Sciences, 2021)", "key": {"[1]": {"test_system": "SK-MES-1, A-549, SKOV-3 and MCF-7 cells", "assay": "In vitro receptor binding of radiolabeled peptides on four cell lines", "design": "species or system human", "conditions": "2 hr at 37 °C", "method": "The in vitro receptor binding of the^ 99mTc-labeled peptide was evaluated using SK-MES-1 a human lung squamous cell carcinoma, SKOV-3 human ovarian carcinoma, and A-549 human lung adenocarcinoma epithelial and MCF-7 human breast cancer cell lines. All cell lines were kept at 37 °C in a 5% CO2 incubator and were maintained in Dulbecco’s DMEM-high glucose supplemented with 10% FBS. Cells were plated in 24-well plates at a density of 4×10^5 cells/well in 1 ml of complete medium and incubated for 24 hr to allow in cells to settle. Following a wash with cold serum-free media or PBS, 40 nM radiolabeled peptides in the full medium were given to the cells, which were then incubated at 37 °C for 2 hr. Finally, cells in culture plates were trypsinized and released, and radioactivity in the cells was measured. To determine specific versus nonspecific binding, SK-MES-1 cells were seeded into 12-well plates at a density of 5×10^5 cells/well and incubated with unlabeled peptides at a concentration 500-fold higher than the labeled peptide for 20 min at 37 °C, followed by the addition of the radiolabeled peptide to the wells. These cells were incubated for 2 hr at 37 °C in a humidified incubator."}, "SK-MES-1 tumors": {"test_system": "SK-MES-1 tumors", "assay": "Biodistribution in SK-MES-1 xenografted nude mice", "assay_type": "in vivo, female C57 nu/nu mice", "conditions": "SK-MES-1 xenograft nude mice, n=4; for Intestine uptake (with contents): mean ± SD", "method": "The tumor biodistribution and targeting properties of the radiolabeled peptides were carried out in female C57 nu/nu mice bearing SK-MES-1 (Pasture Institute, North Branch and Amol, Iran). The tumor was grafted by subcutaneous injection of SK-MES-1 cells at a concentration of 4×10^6 cells/mouse into the right front flank of the mice and left to grow over a period of 20 days. The mice were ready for biodistribution when tumor size reached 0.7–1 cm^3 in mean diameter, all mice received intravenous co-injections of (^99mTc) Tc-HYNIC-(Ser)3-J18 peptide 1 or (^99mTc )Tc-HYNIC-(Ser)3-J18 peptide 2 (1 μg in 100 μl buffer) after 1, 2, and 4 hr post-injection, respectively (n=4 mice per group). In order to measure the radiopeptides’ nonspecific uptake of the radiopeptides, one group of four animals was injected with 300 μg of non-labeled peptide in a 50 μl buffer. The mice in the blocking group were euthanized 2 hr after the injection. Mice organ and tissue samples were collected, and radioactivity uptake was calculated as a percentage of the administered dose per gram tissue (%ID/g)."}}, "note": "Peptide text beside a SMILES is read from it."}
{"smiles": "CC(C)C[C@H](NC(=O)[C@H](CO)NC(=O)[C@H](CCCNC(=N)N)NC(=O)[C@H](CO)NC(=O)[C@H](CO)NC(=O)[C@H](CO)NC(=O)c1ccc(NN)nc1)C(=O)N[C@@H](Cc1c[nH]c2ccccc12)C(=O)N[C@@H](CO)C(=O)N[C@@H](CC(=O)O)C(=O)N[C@@H](Cc1ccccc1)C(=O)N[C@@H](Cc1ccc(O)cc1)C(=O)N[C@@H](C)C(=O)N[C@@H](CO)C(=O)N[C@@H](C)C(=O)N[C@@H](CO)C(=O)N[C@@H](CCCNC(=N)N)C(=O)NCC(=O)N1CCC[C@H]1C(=O)O", "note": "[Peptide 1, (^99mTc)Tc-HYNIC-(Ser)3-J18 with tricine, metal not drawn] (HELM PEPTIDE1{[NNc1ccc(C(=O)[*:2])cn1].S.S.S.R.S.L.W.S.D.F.Y.A.S.A.S.R.G.P}$$$$V2.0; C-terminus assumed)", "values": [{"measurement": "cellular affinity, in words", "setting": "[1]; 40 nM radiolabeled peptide", "result": "strongest cellular affinity for the SK-MES-1 cell line"}, {"measurement": "receptor binding affinity (as CPM/Cells value), tricine vs tricine/EDDA as coligand", "setting": "[1]; higher than tricine/EDDA as coligand, 40 nM", "result": 2.5, "unit": "fold"}, {"measurement": "Intestine uptake (with contents)", "setting": "SK-MES-1 tumors; 1 hr, i.v. 1 μg in 100 μl", "result": "0.73±0.06 percentage of injected dose per whole sample"}, {"measurement": "Tumor/muscle ratio", "setting": "SK-MES-1 tumors; 1 hr, listed as 99mTc-peptide 1", "result": 5.1}, {"measurement": "Intestine uptake (with contents)", "setting": "SK-MES-1 tumors; 2h-blocked (300 μg non-labeled peptide 0.5 hr before), i.v. 1 μg", "result": "0.24 ±0.09 percentage of injected dose per whole sample"}, {"measurement": "Intestine uptake (with contents)", "setting": "SK-MES-1 tumors; 2 hr, i.v. 1 μg in 100 μl", "result": "0.59±0.02 percentage of injected dose per whole sample"}, {"measurement": "Intestine uptake (with contents)", "setting": "SK-MES-1 tumors; 4 hr, i.v. 1 μg in 100 μl", "result": "0.04±0.01 percentage of injected dose per whole sample"}]}
